Like-named read-outs stand apart in the source and are kept apart here.
Legend:
E. coli growth = test system: E. coli growth; set-up: method as in PMID 11751865; settings: atmosphere containing 5 μM O2 and 0.5 μM NO; cited from earlier work
flavoHb = test system: flavoHb; set-up: method as in PMID 22948361; settings: cited from earlier work
anaerobic E. coli = test system: anaerobic E. coli; set-up: method as in PMID 11751864; settings: cited from earlier work
E. coli flavoHb = E. coli flavoHb (Escherichia coli, UniProt P24232); settings: cited from earlier work
[1] = test system: flavoHb heme (Fe^2+ / Fe^3+); settings: for Kd: from slow phase; for time for 90% activity recovery following NO binding: calculated from k(NO)
Method: (§1) FAD and heme reduction were monitored by following the changes in flavoHb absorbance at 460 and 430 nm, respectively, with stopped-flow rapid mixing of 50 μM NADH and 10 μM flavoHb in N2-purged buffer ([4]). O2, NO, and CO association rate constants were determined by photolyzing 50 μM of the respective ferrous flavoHb species with a 300-ns pulse from a 577-nm laser and by spectrophotometrically following ligand reassociation in O2-, NO-, or CO-saturated buffer unless otherwise indicated ([4], [5]). […] Binding of NO was measured by the change of absorbance at 422 nm by applying a difference extinction coefficient of 0.040 μM^−1 cm^−1. O2 and CO dissociation rate constants were determined by stopped-flow rapid mixing with either CO or NO displacement ([4], [5]). The cuvette path length was 1.0 cm. All reactions were at 20 °C in filtered 100 mM sodium phosphate buffer, pH 7.0, containing 0.3 mM EDTA. Catalase (1000 U/ml) was included in all reactions containing O2 to scavenge H2O2 produced by the NADH oxidase activity of flavoHb and to regenerate O2.

[2] = biological target: flavoHb heme (Fe^2+ / Fe^3+) (Escherichia coli, UniProt P24232)
Method: as §1

[3] = Fe2+ CO, 100 µM CO in the presence of 0.6 mM N2
[4] = Fe2+ O2, 100 µM CO in the presence of 1 mM O2

B1: WT: wild-type E. coli flavohemoglobin (flavoHb), an NO dioxygenase (NOD) (protein, UniProt P24232 1-396, looked up)
Flavohemoprotein: MLDAQTIATVKATIPLLVETGPKLTAHFYDRMFTHNPELKEIFNMSNQRNGDQREALFNAIAAYASNIENLPALLPAVEKIAQKHTSFQIKPEQYNIVGEHLLATLDEMFSPGQEVLDAWGKAYGVLANVFINREAEIYNENASKAGGWEGTRDFRIVAKTPRSALITSFELEPVDGGAVAEYRPGQYLGVWLKPEGFPHQEIRQYSLTRKPDGKGYRIAVKREEGGQVSNWLHNHANVGDVVKLVAPAGDFFMAVADDTPVTLISAGVGQTPMLAMLDTLAKAGHTAQVNWFHAAENGDVHAFADEVKELGQSLPRFTAHTWYRQPSEADRAKGQFDSEGLMDLSKLEGAFSDPTMQFYLCGPVGFMQFTAKQLVDLGVKQENIHYECFGPHKVL
Question: Which “protection of E. coli growth” value (E. coli growth) does the source give for B1 here?
Answer: fully protects

Question: What about the “kET by time-resolved pulse radiolysis” value (flavoHb) of the same molecule?
Answer: 6800 s⁻¹

Question: What about the NO metabolic activity (anaerobic E. coli) of the same molecule?
Answer: insignificant NO metabolic activity

Question: What about the kET previously reported (E. coli flavoHb) of the same molecule?
Answer: 136 s⁻¹

Question: And the “k' fast” value [1, 3]?
Answer: 2.9e+07 M⁻¹ s⁻¹

Question: And the “k' slow” value [1, 3]?
Answer: 2.7e+06 M⁻¹ s⁻¹

Question: What about the τT [1, 3] of the same molecule?
Answer: 500 ± 100 µs

Question: What about the “k' fast” value [1, 4] of the same molecule?
Answer: 2.9e+07 M⁻¹ s⁻¹

Question: What about the “k' slow” value [1, 4] of the same molecule?
Answer: 1.9e+06 M⁻¹ s⁻¹

Question: And the τT [1, 4]?
Answer: 70 ± 10 µs

Question: What about the “k′fast” value ([1]; Fe^2+ CO, 20 °C) of the same molecule?
Answer: 1.4e+07 M⁻¹ s⁻¹

Question: And the “k′slow” value ([1]; Fe^2+ CO, 20 °C)?
Answer: 1.4e+06 M⁻¹ s⁻¹

Question: And the τT ([1]; Fe^2+ CO, 20 °C)?
Answer: 175 ± 25 μs

Question: What about the Kd ([1]; Fe^2+ CO, 20 °C) of the same molecule?
Answer: 12 to 39 nM

Question: And the “k′fast” value ([1]; Fe^2+ NO, 20 °C)?
Answer: 3.1e+07 M⁻¹ s⁻¹

Question: What about the “k′slow” value ([1]; Fe^2+ NO, 20 °C) of the same molecule?
Answer: 8.5e+06 M⁻¹ s⁻¹

Question: And the τT ([1]; Fe^2+ NO, 20 °C)?
Answer: 40 ± 10 μs

Question: And the Kd ([1]; Fe^2+ NO)?
Answer: 0.024 nM

Question: And the “k′fast” value ([1]; Fe^2+ O2, 20 °C)?
Answer: 3.3e+07 M⁻¹ s⁻¹

Question: What about the “k′slow” value ([1]; Fe^2+ O2, 20 °C) of the same molecule?
Answer: 1.4e+07 M⁻¹ s⁻¹

Question: What about the τT ([1]; Fe^2+ O2, 20 °C) of the same molecule?
Answer: 70 ± 5 μs

Question: And the k ([1]; Fe^2+ O2 dissociation, 20 °C)?
Answer: 0.20 s⁻¹

Question: And the “k′fast” value ([1]; Fe^3+ NO, 20 °C)?
Answer: 4.6e+07 M⁻¹ s⁻¹

Question: What about the “k′slow” value ([1]; Fe^3+ NO, 20 °C) of the same molecule?
Answer: 1.2e+07 M⁻¹ s⁻¹

Question: And the τT ([1]; Fe^3+ NO, 20 °C)?
Answer: 18 ± 3 μs

Question: What about the Kd ([1]; Fe^3+ NO) of the same molecule?
Answer: 330000 nM

Question: And the “time for 90% activity recovery following NO binding” value ([1]; ferric NO form)?
Answer: 0.6 ms

Question: What about the “time for 90% activity recovery following NO binding” value ([1]; ferrous NO species) of the same molecule?
Answer: 1.15e+07 ms

Question: And the “decrease of fraction of flavoHbFe^3+O2^− formed in the fast phase” value [2]?
Answer: ~50%

Question: What about the “τT for O2 rebinding” value [2] of the same molecule?
Answer: ~55 μs

Reference: paper PMC7948479, “Allostery in the nitric oxide dioxygenase mechanism of flavohemoglobin” (The Journal of Biological Chemistry, 2020)
